Assay results reported in doi:10.1101/2021.01.05.425367 (bioRxiv, 2021).

Molecular target: T1, LolB-Strep (E. coli, UniProt P61320 22-207)
T1 sequence (looked up): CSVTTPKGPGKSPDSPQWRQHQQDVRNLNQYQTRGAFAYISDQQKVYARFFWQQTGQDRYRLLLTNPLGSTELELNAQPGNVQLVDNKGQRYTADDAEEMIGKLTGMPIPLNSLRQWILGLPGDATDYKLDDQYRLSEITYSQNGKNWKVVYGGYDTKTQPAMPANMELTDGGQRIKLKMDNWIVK
Experiment: pull-down

- binding result: binds
B1: wild-type RcsF (natural protein, E. coli, UniProt P69411 16-134, looked up)
chain: CSMLSRSPVEPVQSTAPQPKAEPAKPKAPRATPVRIYTNAEELVGKPFRDLGEVSGDSCQASNQDSPPSIPTARKRMQINASKMKANAVLLHSCEVTSGTPGCYRQAVCIGSALNITAK
modifications: acylated (lipidated) N-terminal cysteine, the first residue of the mature lipoprotein
